From paper doi:10.1101/208272 (bioRxiv, 2017)

Key:
[1] = target: Cdh23-EC1+2 (mouse cadherin-23 extracellular repeats EC1 and EC2), wild type (mouse) (UniProt Q99PF4); assay: FRET or BRET
[2] = target: Cdh23-EC1+2 V3C, labelled with cy3 or cy5 at the N-terminus (mouse); assay: FRET or BRET
[3] = target: Cdh23-EC1+2 (mouse cadherin-23 extracellular repeats EC1 and EC2), wild type (mouse) (UniProt Q99PF4); assay: SEC
[4] = target: Cdh23-EC1+2 (mouse cadherin-23 extracellular repeats EC1 and EC2), wild type (mouse) (UniProt Q99PF4); assay: AUC
[5] = target: Cdh23-EC1+2 (mouse cadherin-23 extracellular repeats EC1 and EC2), wild type (mouse) (UniProt Q99PF4); assay: single-molecule force spectroscopy
[6] = target: Cdh23-EC1+2 (mouse cadherin-23 extracellular repeats EC1 and EC2), wild type (mouse) (UniProt Q99PF4); assay: dynamic light scattering
AUC = target: the molecule itself; assay: AUC

Q: Which results are given for “Cdh23-EC1+2 V3C, labelled with cy3 or cy5 at the N-terminus (domain or fragment)”?
A: FRET efficiency [1]: 0.64; FRET efficiency [2]: 0.15

Q: Which results are given for “Cdh23-EC1+2 (mouse cadherin-23 extracellular repeats EC1 and EC2), wild type (from UniProt Q99PF4 24-228) (domain or fragment)”?
A: stoichiometry N [3]: 2; Kd [4]: 18 µM; stoichiometry N [4]: 2; percent unbinding events [5]: 8 to 10%; probability of events [5]: 6%; τ0 (intrinsic lifetime at zero force), high-force distribution [5]: 1220 s; τ0 (intrinsic lifetime at zero force), low-force distribution [5]: 1.86 s; stoichiometry N [6]: 2

B1: Cdh23-EC1 (mouse cadherin-23 extracellular repeat EC1) (domain or fragment, UniProt Q99PF4 24-124, looked up)
chain: QVNRLPFFTNHFFDTYLLISEDTPVGSSVTQLLARDMDNDPLVFGVSGEEASRFFAVEPDTGVVWLRQPLDRETKSEFTVEFSVSDHQGVITRKVNIQVGD
modifications: C-terminus covalently joined by sortase A to GGGGC on PEG-coated coverslips and AFM cantilevers in force spectroscopy
Q: B1 was tested. Which “stoichiometry N” value (AUC) did it give?
A: 2
